In paper PMC12102759 (2025):

B1: PEX5 peptide 240-255 (Peroxisomal targeting signal 1 receptor), 16-mer library wild type / PEX14 Pex14 (PEX14 PEX14, residues 16-84) (parent complex)
chain 1: AEQWAAEFIQQQGTSD
chain 2: TPGSENVLPREPLIATAVKFLQNSRVRQSPLATRRAFLKKKGLTDEEIDMAFQQSGTAADEPSSLGPAT
B2: PAIP1 peptide 124-139 (Polyadenylate-binding protein-interacting protein 1), 16-mer library wild type / PABPC1 PABC (PABPC1 PABC domain, residues 544-623) (parent complex)
chain 1: LMSKLSVNAPEFYPSG
chain 2: PLTASMLASAPPQEQKQMLGERLFPLIQAMHPTLAGKITGMLLEIDNSELLHMLESPESLRSKVDEAVAVLQAHQAKEAA

Variants of: B1
Test: proteomic peptide phage display deep mutational scan (ProP-PD DMS): M13 P8 16-mer library selected against immobilised GST-tagged bait for four days (rounds), NGS of the eluted pools per day and pseudo-replica; bait immobilised on MaxiSorp plates (10 µg), library pre-cleared on GST, 2 h binding at 4 °C, five washes; one round per day, days 1-4; value from days 2 and 3

For chain 1 Q10M, which screen value is on record?
The screen value was 0.00324 average fractional NGS count over selection days 2 and 3 (reads of this peptide / all reads for the bait, averaged over ….

With chain 1 Q3M as the variant, how does the screen value read?
The screen value was 0.002 average fractional NGS count over selection days 2 and 3 (reads of this peptide / all reads for the bait, averaged over ….

For chain 1 A1Q, which screen value is on record?
Its screen value is 0.00549 average fractional NGS count over selection days 2 and 3 (reads of this peptide / all reads for the bait, averaged over ….

Which screen value does the source give for chain 1 A6G here?
The screen value was 0.00471 average fractional NGS count over selection days 2 and 3 (reads of this peptide / all reads for the bait, averaged over ….

How did the screen value turn out when chain 1 Q12Y was run?
The screen value was 0.00103 average fractional NGS count over selection days 2 and 3 (reads of this peptide / all reads for the bait, averaged over ….

With chain 1 I9D as the variant, how does the screen value read?
Its screen value is 0.000867 average fractional NGS count over selection days 2 and 3 (reads of this peptide / all reads for the bait, averaged over ….

With chain 1 G13K as the variant, how does the screen value read?
Its screen value is 0.000992 average fractional NGS count over selection days 2 and 3 (reads of this peptide / all reads for the bait, averaged over ….

For chain 1 I9H, which screen value is on record?
The screen value was 0.0279 average fractional NGS count over selection days 2 and 3 (reads of this peptide / all reads for the bait, averaged over ….

chain 1 G13Q was tested. Which screen value did it give?
The screen value was 0.000525 average fractional NGS count over selection days 2 and 3 (reads of this peptide / all reads for the bait, averaged over ….

For chain 1 Q10T, which screen value is on record?
The screen value was 0.00279 average fractional NGS count over selection days 2 and 3 (reads of this peptide / all reads for the bait, averaged over ….

For chain 1 A5H, which screen value is on record?
Its screen value is 0.0461 average fractional NGS count over selection days 2 and 3 (reads of this peptide / all reads for the bait, averaged over ….

With chain 1 G13A as the variant, how does the screen value read?
The screen value was 0.00173 average fractional NGS count over selection days 2 and 3 (reads of this peptide / all reads for the bait, averaged over ….

For chain 1 Q12D, which screen value is on record?
Its screen value is 0.00045 average fractional NGS count over selection days 2 and 3 (reads of this peptide / all reads for the bait, averaged over ….

chain 1 E7W was tested. Which screen value did it give?
Its screen value is 0.00666 average fractional NGS count over selection days 2 and 3 (reads of this peptide / all reads for the bait, averaged over ….

How did the screen value turn out when chain 1 A5N was run?
The screen value was 0.00753 average fractional NGS count over selection days 2 and 3 (reads of this peptide / all reads for the bait, averaged over ….

chain 1 Q12S was tested. Which screen value did it give?
Its screen value is 0.00474 average fractional NGS count over selection days 2 and 3 (reads of this peptide / all reads for the bait, averaged over ….

chain 1 Q10H was tested. Which screen value did it give?
Its screen value is 0.00189 average fractional NGS count over selection days 2 and 3 (reads of this peptide / all reads for the bait, averaged over ….

With chain 1 Q11G as the variant, how does the screen value read?
The screen value was 0.00455 average fractional NGS count over selection days 2 and 3 (reads of this peptide / all reads for the bait, averaged over ….

With chain 1 Q11W as the variant, how does the screen value read?
The screen value was 0.000954 average fractional NGS count over selection days 2 and 3 (reads of this peptide / all reads for the bait, averaged over ….

How did the screen value turn out when chain 1 I9R was run?
Its screen value is 0.00363 average fractional NGS count over selection days 2 and 3 (reads of this peptide / all reads for the bait, averaged over ….

Which screen value does the source give for chain 1 G13T here?
Its screen value is 0.000744 average fractional NGS count over selection days 2 and 3 (reads of this peptide / all reads for the bait, averaged over ….

chain 1 Q11V was tested. Which screen value did it give?
The screen value was 0.0012 average fractional NGS count over selection days 2 and 3 (reads of this peptide / all reads for the bait, averaged over ….

How did the screen value turn out when chain 1 A5E was run?
The screen value was 0.0005 average fractional NGS count over selection days 2 and 3 (reads of this peptide / all reads for the bait, averaged over ….

How did the screen value turn out when chain 1 T14H was run?
The screen value was 0.00166 average fractional NGS count over selection days 2 and 3 (reads of this peptide / all reads for the bait, averaged over ….

How did the screen value turn out when chain 1 Q12I was run?
Its screen value is 0.00133 average fractional NGS count over selection days 2 and 3 (reads of this peptide / all reads for the bait, averaged over ….

With chain 1 I9G as the variant, how does the screen value read?
Its screen value is 0.000546 average fractional NGS count over selection days 2 and 3 (reads of this peptide / all reads for the bait, averaged over ….

For chain 1 T14I, which screen value is on record?
Its screen value is 0.00075 average fractional NGS count over selection days 2 and 3 (reads of this peptide / all reads for the bait, averaged over ….

How did the screen value turn out when chain 1 Q10F was run?
Its screen value is 0.00183 average fractional NGS count over selection days 2 and 3 (reads of this peptide / all reads for the bait, averaged over ….

With chain 1 A5L as the variant, how does the screen value read?
The screen value was 0.00177 average fractional NGS count over selection days 2 and 3 (reads of this peptide / all reads for the bait, averaged over ….

Which screen value does the source give for chain 1 Q10E here?
Its screen value is 0.0048 average fractional NGS count over selection days 2 and 3 (reads of this peptide / all reads for the bait, averaged over ….

For chain 1 A6Y, which screen value is on record?
Its screen value is 0.00438 average fractional NGS count over selection days 2 and 3 (reads of this peptide / all reads for the bait, averaged over ….

How did the screen value turn out when chain 1 G13S was run?
Its screen value is 0.00151 average fractional NGS count over selection days 2 and 3 (reads of this peptide / all reads for the bait, averaged over ….

For chain 1 F8W, which screen value is on record?
The screen value was 0.00184 average fractional NGS count over selection days 2 and 3 (reads of this peptide / all reads for the bait, averaged over ….

Which screen value does the source give for chain 1 E2M here?
The screen value was 0.00435 average fractional NGS count over selection days 2 and 3 (reads of this peptide / all reads for the bait, averaged over ….

With chain 1 S15Y as the variant, how does the screen value read?
The screen value was 0.000382 average fractional NGS count over selection days 2 and 3 (reads of this peptide / all reads for the bait, averaged over ….

For chain 1 S15V, which screen value is on record?
The screen value was 0.000997 average fractional NGS count over selection days 2 and 3 (reads of this peptide / all reads for the bait, averaged over ….

How did the screen value turn out when chain 1 Q10W was run?
Its screen value is 0.0034 average fractional NGS count over selection days 2 and 3 (reads of this peptide / all reads for the bait, averaged over ….

For chain 1 A1R, which screen value is on record?
Its screen value is 0.000918 average fractional NGS count over selection days 2 and 3 (reads of this peptide / all reads for the bait, averaged over ….

How did the screen value turn out when chain 1 E7A was run?
Its screen value is 0.00276 average fractional NGS count over selection days 2 and 3 (reads of this peptide / all reads for the bait, averaged over ….

Which screen value does the source give for chain 1 A6V here?
Its screen value is 0.00173 average fractional NGS count over selection days 2 and 3 (reads of this peptide / all reads for the bait, averaged over ….

For chain 1 Q3G, which screen value is on record?
Its screen value is 0.000648 average fractional NGS count over selection days 2 and 3 (reads of this peptide / all reads for the bait, averaged over ….

How did the screen value turn out when chain 1 E7G was run?
Its screen value is 0.00104 average fractional NGS count over selection days 2 and 3 (reads of this peptide / all reads for the bait, averaged over ….

How did the screen value turn out when chain 1 G13P was run?
Its screen value is 0.00036 average fractional NGS count over selection days 2 and 3 (reads of this peptide / all reads for the bait, averaged over ….

For chain 1 Q12P, which screen value is on record?
Its screen value is 0.00104 average fractional NGS count over selection days 2 and 3 (reads of this peptide / all reads for the bait, averaged over ….

chain 1 I9W was tested. Which screen value did it give?
Its screen value is 0.00339 average fractional NGS count over selection days 2 and 3 (reads of this peptide / all reads for the bait, averaged over ….

chain 1 E2H was tested. Which screen value did it give?
The screen value was 0.00822 average fractional NGS count over selection days 2 and 3 (reads of this peptide / all reads for the bait, averaged over ….

Which screen value does the source give for chain 1 E7Y here?
Its screen value is 0.00419 average fractional NGS count over selection days 2 and 3 (reads of this peptide / all reads for the bait, averaged over ….

Which screen value does the source give for chain 1 Q10D here?
The screen value was 0.000871 average fractional NGS count over selection days 2 and 3 (reads of this peptide / all reads for the bait, averaged over ….

chain 1 T14A was tested. Which screen value did it give?
Its screen value is 0.00163 average fractional NGS count over selection days 2 and 3 (reads of this peptide / all reads for the bait, averaged over ….

chain 1 Q10Y was tested. Which screen value did it give?
The screen value was 0.00306 average fractional NGS count over selection days 2 and 3 (reads of this peptide / all reads for the bait, averaged over ….

For chain 1 A5W, which screen value is on record?
Its screen value is 0.000742 average fractional NGS count over selection days 2 and 3 (reads of this peptide / all reads for the bait, averaged over ….

For chain 1 Q11S, which screen value is on record?
The screen value was 0.000902 average fractional NGS count over selection days 2 and 3 (reads of this peptide / all reads for the bait, averaged over ….

Which screen value does the source give for chain 1 Q12M here?
The screen value was 0.000477 average fractional NGS count over selection days 2 and 3 (reads of this peptide / all reads for the bait, averaged over ….

chain 1 I9F was tested. Which screen value did it give?
The screen value was 0.00108 average fractional NGS count over selection days 2 and 3 (reads of this peptide / all reads for the bait, averaged over ….

Which screen value does the source give for chain 1 Q10I here?
The screen value was 0.00252 average fractional NGS count over selection days 2 and 3 (reads of this peptide / all reads for the bait, averaged over ….

How did the screen value turn out when chain 1 Q3L was run?
The screen value was 0.00235 average fractional NGS count over selection days 2 and 3 (reads of this peptide / all reads for the bait, averaged over ….

Which screen value does the source give for chain 1 Q3D here?
The screen value was 0.000539 average fractional NGS count over selection days 2 and 3 (reads of this peptide / all reads for the bait, averaged over ….

Variants of: B2
Test: as above

Which screen value does the source give for chain 1 S15F here?
The screen value was 0.00282 average fractional NGS count over selection days 2 and 3 (reads of this peptide / all reads for the bait, averaged over ….

How did the screen value turn out when chain 1 S6T was run?
Its screen value is 0.0012 average fractional NGS count over selection days 2 and 3 (reads of this peptide / all reads for the bait, averaged over ….

Which screen value does the source give for chain 1 G16W here?
The screen value was 0.000405 average fractional NGS count over selection days 2 and 3 (reads of this peptide / all reads for the bait, averaged over ….

Which screen value does the source give for chain 1 S3M here?
The screen value was 0.000284 average fractional NGS count over selection days 2 and 3 (reads of this peptide / all reads for the bait, averaged over ….

Which screen value does the source give for chain 1 S3A here?
Its screen value is 0.00075 average fractional NGS count over selection days 2 and 3 (reads of this peptide / all reads for the bait, averaged over ….

For chain 1 P14V, which screen value is on record?
Its screen value is 0.000836 average fractional NGS count over selection days 2 and 3 (reads of this peptide / all reads for the bait, averaged over ….

With chain 1 P10Y as the variant, how does the screen value read?
The screen value was 0.000572 average fractional NGS count over selection days 2 and 3 (reads of this peptide / all reads for the bait, averaged over ….

Which screen value does the source give for chain 1 K4N here?
The screen value was 0.0102 average fractional NGS count over selection days 2 and 3 (reads of this peptide / all reads for the bait, averaged over ….

How did the screen value turn out when chain 1 S3N was run?
The screen value was 0.000537 average fractional NGS count over selection days 2 and 3 (reads of this peptide / all reads for the bait, averaged over ….

For chain 1 G16R, which screen value is on record?
The screen value was 0.000806 average fractional NGS count over selection days 2 and 3 (reads of this peptide / all reads for the bait, averaged over ….

With chain 1 S15Q as the variant, how does the screen value read?
Its screen value is 0.000451 average fractional NGS count over selection days 2 and 3 (reads of this peptide / all reads for the bait, averaged over ….

For chain 1 K4L, which screen value is on record?
Its screen value is 0.0004 average fractional NGS count over selection days 2 and 3 (reads of this peptide / all reads for the bait, averaged over ….

How did the screen value turn out when chain 1 M2A was run?
The screen value was 0.000739 average fractional NGS count over selection days 2 and 3 (reads of this peptide / all reads for the bait, averaged over ….

For chain 1 P10L, which screen value is on record?
Its screen value is 0.00239 average fractional NGS count over selection days 2 and 3 (reads of this peptide / all reads for the bait, averaged over ….

For chain 1 K4Y, which screen value is on record?
The screen value was 0.00101 average fractional NGS count over selection days 2 and 3 (reads of this peptide / all reads for the bait, averaged over ….

chain 1 Y13V was tested. Which screen value did it give?
Its screen value is 0.000146 average fractional NGS count over selection days 2 and 3 (reads of this peptide / all reads for the bait, averaged over ….

Which screen value does the source give for chain 1 N8W here?
The screen value was 0.000471 average fractional NGS count over selection days 2 and 3 (reads of this peptide / all reads for the bait, averaged over ….

Which screen value does the source give for chain 1 S3K here?
The screen value was 0.000637 average fractional NGS count over selection days 2 and 3 (reads of this peptide / all reads for the bait, averaged over ….
